{"source": "patent JP2005320353A", "about": "(dated 2005)", "binders": {"B1": {"name": "ヒト型化#23-57-137-1抗体 (H鎖バージョン\"a\"、L鎖バージョン\"j\") (antibody, IgG1, V domains shown)", "VH": "QVQLVESGGGVVQPGRSLRLSCAASGFTFSSYGMSWVRQAPGKGLEWVATISSGGSYTYYPDSVKGRFTISRDNSKNTLYLQMNSLRAEDTAVYYCARQTTMTYFAYWGQGTLVTVSS", "VL": "QLVLTQSPSASASLGASVKLTCTLSSQHSTYTIEWYQQQPEKGPKYLMDLKQDGSHSTGDGIPDRFSGSSSGAERYLTISSLQSEDEADYYCGVGDTIKEQFVYVFGGGTKLTVLG", "notes": "Human Cγ1 (IgG1) and human lambda C region; Expressed in COS-7 cells; also called hMBC1HcDNA/pCOS1 + hMBC1Ljλ/pCOS1"}, "B2": {"name": "ヒト型化#23-57-137-1抗体 (H鎖バージョン\"a\"、L鎖バージョン\"l\") (antibody, IgG1, V domains shown)", "VH": "QVQLVESGGGVVQPGRSLRLSCAASGFTFSSYGMSWVRQAPGKGLEWVATISSGGSYTYYPDSVKGRFTISRDNSKNTLYLQMNSLRAEDTAVYYCARQTTMTYFAYWGQGTLVTVSS", "VL": "QLVLTQSPSASASLGASVKLTCTLSSQHSTYTIEWYQQQPEKGPKYVMDLKQDGSHSTGDGIPDRFSGSSSGAERYLTISSLQSEDEADYYCGVGDTIKEQFVYVFGGGTKLTVLG", "notes": "Human Cγ1 (IgG1) and human lambda C region; Expressed in COS-7 cells; also called hMBC1HcDNA/pCOS1 + hMBC1Llλ/pCOS1"}, "B3": {"name": "ヒト型化#23-57-137-1抗体 (H鎖バージョン\"a\"、L鎖バージョン\"m\") (antibody, IgG1, V domains shown)", "VH": "QVQLVESGGGVVQPGRSLRLSCAASGFTFSSYGMSWVRQAPGKGLEWVATISSGGSYTYYPDSVKGRFTISRDNSKNTLYLQMNSLRAEDTAVYYCARQTTMTYFAYWGQGTLVTVSS", "VL": "QLVLTQSPSASASLGASVKLTCTLSSQHSTYTIEWYQQQPEKGPRYLMDLKQDGSHSTGDGIPDRFSGSSSGAERYLTISSLQSEDEADYYCGVGDTIKEQFVYVFGGGTKLTVLG", "notes": "Human Cγ1 (IgG1) and human lambda C region; Expressed in COS-7 cells; also called hMBC1HcDNA/pCOS1 + hMBC1Lmλ/pCOS1"}, "B4": {"name": "ヒト型化#23-57-137-1抗体 (H鎖バージョン\"a\"、L鎖バージョン\"o\") (antibody, IgG1, V domains shown)", "VH": "QVQLVESGGGVVQPGRSLRLSCAASGFTFSSYGMSWVRQAPGKGLEWVATISSGGSYTYYPDSVKGRFTISRDNSKNTLYLQMNSLRAEDTAVYYCARQTTMTYFAYWGQGTLVTVSS", "VL": "QLVLTQSPSASASLGASVKLTCTLSSQHSTYTIEWYQQQPEKGPRYVMDLKQDGSHSTGDGIPDRFSGSSSGAERYLTISSLQSEDEADYYCGVGDTIKEQFVYVFGGGTKLTVLG", "notes": "Human Cγ1 (IgG1) and human lambda C region; Expressed in COS-7 cells; also called hMBC1HcDNA/pCOS1 + hMBC1Loλ/pCOS1"}, "B5": {"name": "ヒト型化#23-57-137-1抗体 (H鎖バージョン\"a\"、L鎖バージョン\"q\") (antibody, IgG1, V domains shown)", "VH": "QVQLVESGGGVVQPGRSLRLSCAASGFTFSSYGMSWVRQAPGKGLEWVATISSGGSYTYYPDSVKGRFTISRDNSKNTLYLQMNSLRAEDTAVYYCARQTTMTYFAYWGQGTLVTVSS", "VL": "QLVLTQSPSASASLGASVKLTCTLSSQHSTYTIEWYQQQPEKGPKYLMDLKQDGSHSTGDGIPDRFSGSSSGAERYLTISSLQSEDEADYICGVGDTIKEQFVYVFGGGTKLTVLG", "notes": "Human Cγ1 (IgG1) and human lambda C region; Expressed in COS-7 cells for the ELISA; also made in CHO cells; also called hMBC(q); hMBC1HcDNA + hMBC1Lqλ"}, "B6": {"name": "ヒト型化#23-57-137-1抗体 (H鎖バージョン\"a\"、L鎖バージョン\"t\") (antibody, IgG1, V domains shown)", "VH": "QVQLVESGGGVVQPGRSLRLSCAASGFTFSSYGMSWVRQAPGKGLEWVATISSGGSYTYYPDSVKGRFTISRDNSKNTLYLQMNSLRAEDTAVYYCARQTTMTYFAYWGQGTLVTVSS", "VL": "QLVLTQSPSASASLGASVKLTCTLSSQHSTYTIEWYQQQPEKGPRYVMDLKQDGSHSTGDGIPDRFSGSSSGAERYLTISSLQSEDEADYICGVGDTIKEQFVYVFGGGTKLTVLG", "notes": "Human Cγ1 (IgG1) and human lambda C region; Expressed in COS-7 cells; also called hMBC1HcDNA/pCOS1 + hMBC1Ltλ/pCOS1"}, "B7": {"name": "ヒト型化H鎖バージョン\"a\"とキメラL鎖を組み合わせた抗体 (antibody, V domains shown)", "VH": "QVQLVESGGGVVQPGRSLRLSCAASGFTFSSYGMSWVRQAPGKGLEWVATISSGGSYTYYPDSVKGRFTISRDNSKNTLYLQMNSLRAEDTAVYYCARQTTMTYFAYWGQGTLVTVSS", "VL": "QLVLTQSSSASFSLGASAKLTCTLSSQHSTYTIEWYQQQPLKPPKYVMDLKQDGSHSTGDGIPDRFSGSSSGADRYLSISNIQPEDEAMYICGVGDTIKEQFVYVFGGGTKVTVLG", "notes": "Humanised H chain version a with human Cγ1; The chimeric L chain has the mouse V region"}}, "data": [{"target": "T1, ヒトPTHrP(1-34) (human)", "T1 construct": "Synthetic peptide, bought (Peninsula; ペプチド研究所); Coated on the plate in the ELISA; also called human parathyroid hormone related peptide (1-34)", "experiment": "ELISA on plate-coated human PTHrP(1-34)", "values": [{"binder": "B1", "binding result": "binds"}, {"binder": "B2", "binding result": "binds"}, {"binder": "B3", "binding result": "binds"}, {"binder": "B4", "binding result": "binds"}, {"binder": "B5", "binding result": "binds"}, {"binder": "B6", "binding result": "binds"}, {"binder": "B7", "binding result": "binds"}]}]}
